Laboratory results published in patent publication US20130129739A1 (Bayer, published 2013).

B1: 005-C04-29-17-7 (Fab, V domains shown)
VH: EVQLLESGGGLVQPGGSLRLSCAASGFTFSSYWMHWVRQAPGKGLEWVSDISSASSYTNYADSVKGRFTISRDNSKNTLYLQMNSLRAEDTAVYYCARGLDARRMDYWGQGTLVTVTS
VL: QSVLTQPPSASGTPGQRVTISCTGSSSNIGAGYVVHWYQQLPGTAPKLLIYRNNQRPSGVPDRFSGSKSGTSASLAISGLRSEDEADYYCAAWDDSLLGWLFGGGTKLTVLG
notes: Maturated 005-C04 variant; Fab in E. coli supernatant, flag-detected
B2: 005-C04-53-31-7 (Fab, V domains shown)
VH: EVQLLESGGGLVQPGGSLRLSCAASGFTFSSYWMHWVRQAPGKGLEWVSDISSLSSYTNYADSVKGRFTISRDNSKNTLYLQMNSLRAEDTAVYYCARGLDARRMDYWGQGTLVTVTS
VL: QSVLTQPPSASGTPGQRVTISCTGSSSNIGAGYVVHWYQQLPGTAPKLLIYRNNQRPSGVPDRFSGSKSGTSASLAISGLRSEDEADYYCAAWDDSLNGWLFGGGTKLTVLG
notes: as for B1
B3: 005-C04-L2-1-2-3 (Fab, V domains shown)
VH: EVQLLESGGGLVQPGGSLRLSCAASGFTFSSYWNHWVRQAPGKGLEWVSDMARASPYTGYADSVKGRFTISRDNSKNTLYLQMNSLRAEDTAVYYCARGLDARRMDYWGQGTLVTVTS
VL: QSVLTQPPSASGTPGQRVTISCTGSSSNIGAGYVVHWYQQLPGTAPKLLIYRNNWRPSGVPDRFSGSKSGTSASLAISGLRSEDEADYYCAAWDDSLNGWLFGGGTKLTVLG
notes: as for B1
B4: 005-C04-37-7 (Fab, V domains shown)
VH: EVQLLESGGGLVQPGGSLRLSCAASGFTFSSYWWHWVRQAPGKGLEWVSDISSLSSYTGYADSVKGRFTISRDNSKNTLYLQMNSLRAEDTAVYYCARGLDARRMDYWGQGTLVTVTS
VL: QSVLTQPPSASGTPGQRVTISCTGSSSNIGYGYVVHWYQQLPGTAPKLLIYRNNWRPSGVPDRFSGSKSGTSASLAISGLRSEDEADYYCAAWDDSLNGWLFGGGTKLTVLG
notes: as for B1
B5: 005-C04-37-2 (Fab, V domains shown)
VH: EVQLLESGGGLVQPGGSLRLSCAASGFTFSSYWWHWVRQAPGKGLEWVSDISSLSSYTGYADSVKGRFTISRDNSKNTLYLQMNSLRAEDTAVYYCARGLDARRMDYWGQGTLVTVTS
VL: QSVLTQPPSASGTPGQRVTISCTGSSSNIGYGYVVHWYQQLPGTAPKLLIYRNNWRPSGVPDRFSGSKSGTSASLAISGLRSEDEADYYCAAWDDSLNGWLFGGGTKLTVLG
notes: as for B1
B6: 005-C04-55-32-0 (Fab, V domains shown)
VH: EVQLLESGGGLVQPGGSLRLSCAASGFTFSSYWMHWVRQAPGKGLEWVSDISSASPYTNYADSVKGRFTISRDNSKNTLYLQMNSLRAEDTAVYYCARGLDARRMDYWGQGTLVTVTS
VL: QSVLTQPPSASGTPGQRVTISCTGSSSNIGAGYVVHWYQQLPGTAPKLLIYRNNQRPSGVPDRFSGSKSGTSASLAISGLRSEDEADYYCAAWDDSLNGWLFGGGTKLTVLG
notes: as for B1
B7: 005-C04-50-28-3 (Fab, V domains shown)
VH: EVQLLESGGGLVQPGGSLRLSCAASGFTFSSYWMHWVRQAPGKGLEWVSDRSSASSYTNYADSVKGRFTISRDNSKNTLYLQMNSLRAEDTAVYYCARGLDARRMDYWGQGTLVTVTS
VL: QSVLTQPPSASGTPGQRVTISCTGSSSNIGAGYVVHWYQQLPGTAPKLLIYRNNQRPSGVPDRFSGSKSGTSASLAISGLRSEDEADYYCAAWDDSLNGWLFGGGTKLTVLG
notes: as for B1
B8: 005-C04-45-1 (Fab, V domains shown)
VH: EVQLLESGGGLVQPGGSLRLSCAASGFTFSSYWNHWVRQAPGKGLEWVSDISRASSYTNYADSVKGRFTISRDNSKNTLYLQMNSLRAEDTAVYYCARGLDARRMDYWGQGTLVTVTS
VL: QSVLTQPPSASGTPGQRVTISCTGSSSNIGYGYVVHWYQQLPGTAPKLLIYRNNVRPSGVPDRFSGSKSGTSASLAISGLRSEDEADYYCAAWDDSLNGWLFGGGTKLTVLG
notes: as for B1
B9: 005-C04-44-25-1 (Fab, V domains shown)
VH: EVQLLESGGGLVQPGGSLRLSCAASGFTFSSYWNHWVRQAPGKGLEWVSDISSASSYTNYADSVKGRFTISRDNSKNTLYLQMNSLRAEDTAVYYCARGLDARRMDYWGQGTLVTVTS
VL: QSVLTQPPSASGTPGQRVTISCTGSSSNIGAGYVVHWYQQLPGTAPKLLIYRNNQRPSGVPDRFSGSKSGTSASLAISGLRSEDEADYYCAAWDDSLNGWLFGGGTKLTVLG
notes: as for B1
B10: 005-C04-58-33-1 (Fab, V domains shown)
VH: EVQLLESGGGLVQPGGSLRLSCAASGFTFSSYWMHWVRQAPGKGLEWVSDISSASSYTGYADSVKGRFTISRDNSKNTLYLQMNSLRAEDTAVYYCARGLDARRMDYWGQGTLVTVTS
VL: QSVLTQPPSASGTPGQRVTISCTGSSSNIGAGYVVHWYQQLPGTAPKLLIYRNNQRPSGVPDRFSGSKSGTSASLAISGLRSEDEADYYCAAWDDSLNGWLFGGGTKLTVLG
notes: as for B1
B11: 005-C04-51-29-0 (Fab, V domains shown)
VH: EVQLLESGGGLVQPGGSLRLSCAASGFTFSSYWMHWVRQAPGKGLEWVSDIASASSYTNYADSVKGRFTISRDNSKNTLYLQMNSLRAEDTAVYYCARGLDARRMDYWGQGTLVTVTS
VL: QSVLTQPPSASGTPGQRVTISCTGSSSNIGAGYVVHWYQQLPGTAPKLLIYRNNQRPSGVPDRFSGSKSGTSASLAISGLRSEDEADYYCAAWDDSLNGWLFGGGTKLTVLG
notes: as for B1
B12: 005-C04-L2-1-3-2 (Fab, V domains shown)
VH: EVQLLESGGGLVQPGGSLRLSCAASGFTFSSYWNHWVRQAPGKGLEWVSDMARLSSYTNYADSVKGRFTISRDNSKNTLYLQMNSLRAEDTAVYYCARGLDARRMDYWGQGTLVTVTS
VL: QSVLTQPPSASGTPGQRVTISCTGSSSNIGAGYVVHWYQQLPGTAPKLLIYRNNVRQSGVPDRFSGSKSGTSASLAISGLRSEDEADYYCAAWDDSLNGWLFGGGTKLTVLG
notes: as for B1
B13: 005-C04-47-3 (Fab, V domains shown)
VH: EVQLLESGGGLVQPGGSLRLSCAASGFTFSSYWWHWVRQAPGKGLEWVSDISRASPYTNYADSVKGRFTISRDNSKNTLYLQMNSLRAEDTAVYYCARGLDARRMDYWGQGTLVTVTS
VL: QSVLTQPPSASGTPGQRVTISCTGSSSNIGYGYVVHWYQQLPGTAPKLLIYRNNQRPSGVPDRFSGSKSGTSASLAISGLRSEDEADYYCAAWDDSLNGWLFGGGTKLTVLG
notes: as for B1
B14: 005-C04-40-4 (Fab, V domains shown)
VH: EVQLLESGGGLVQPGGSLRLSCAASGFTFSSYWNHWVRQAPGKGLEWVSDMARLSSYTNYADSVKGRFTISRDNSKNTLYLQMNSLRAEDTAVYYCARGLDARRMDYWGQGTLVTVTS
VL: QSVLTQPPSASGTPGQRVTISCTGSSSNIGYGYVVHWYQQLPGTAPKLLIYRNNVRQSGVPDRFSGSKSGTSASLAISGLRSEDEADYYCAAWDDSLNGWLFGGGTKLTVLG
notes: as for B1
B15: 005-C04-36-0 (Fab, V domains shown)
VH: EVQLLESGGGLVQPGGSLRLSCAASGFTFSSYWWHWVRQAPGKGLEWVSDIARASPYTNYADSVKGRFTISRDNSKNTLYLQMNSLRAEDTAVYYCARGLDARRMDYWGQGTLVTVTS
VL: QSVLTQPPSASGTPGQRVTISCTGSSSNIGYGYVVHWYQQLPGTAPKLLIYRNNVRPSGVPDRFSGSKSGTSASLAISGLRSEDEADYYCAAWDDSLNGWLFGGGTKLTVLG
notes: as for B1
B16: 005-C04-52-29-7 (Fab, V domains shown)
VH: EVQLLESGGGLVQPGGSLRLSCAASGFTFSSYWMHWVRQAPGKGLEWVSDISRASSYTNYADSVKGRFTISRDNSKNTLYLQMNSLRAEDTAVYYCARGLDARRMDYWGQGTLVTVTS
VL: QSVLTQPPSASGTPGQRVTISCTGSSSNIGAGYVVHWYQQLPGTAPKLLIYRNNQRPSGVPDRFSGSKSGTSASLAISGLRSEDEADYYCAAWDDSLNGWLFGGGTKLTVLG
notes: as for B1
B17: 005-C04-46-1 (Fab, V domains shown)
VH: EVQLLESGGGLVQPGGSLRLSCAASGFTFSSYWNHWVRQAPGKGLEWVSDMSRLSPYTNYADSVKGRFTISRDNSKNTLYLQMNSLRAEDTAVYYCARGLDARRMDYWGQGTLVTVTS
VL: QSVLTQPPSASGTPGQRVTISCTGSSSNIGYGYVVHWYQQLPGTAPKLLIYRNNVRQSGVPDRFSGSKSGTSASLAISGLRSEDEADYYCAAWDDSLNGWLFGGGTKLTVLG
notes: as for B1
B18: 005-C04-L2-1-4-5 (Fab, V domains shown)
VH: EVQLLESGGGLVQPGGSLRLSCAASGFTFSSYWWHWVRQAPGKGLEWVSDISRASSYTNYADSVKGRFTISRDNSKNTLYLQMNSLRAEDTAVYYCARGLDARRMDYWGQGTLVTVTS
VL: QSVLTQPPSASGTPGQRVTISCTGSSSNIGYGYVVHWYQQLPGTAPKLLIYRNNWRPSGVPDRFSGSKSGTSASLAISGLRSEDEADYYCAAWDDSLNGWLFGGGTKLTVLG
notes: as for B1
B19: 005-C04-52-29-0 (Fab, V domains shown)
VH: EVQLLESGGGLVQPGGSLRLSCAASGFTFSSYWMHWVRQAPGKGLEWVSDISWASSYTNYADSVKGRFTISRDNSKNTLYLQMNSLRAEDTAVYYCARGLDARRMDYWGQGTLVTVTS
VL: QSVLTQPPSASGTPGQRVTISCTGSSSNIGAGYVVHWYQQLPGTAPKLLIYRNNQRPSGVPDRFSGSKSGTSASLAISGLRSEDEADYYCAAWDDSLNGWLFGGGTKLTVLG
notes: as for B1
B20: 005-C04-42-1 (Fab, V domains shown)
VH: EVQLLESGGGLVQPGGSLRLSCAASGFTFSSYWNHWVRQAPGKGLEWVSDISRLSSYTNYADSVKGRFTISRDNSKNTLYLQMNSLRAEDTAVYYCARGLDARRMDYWGQGTLVTVTS
VL: QSVLTQPPSASGTPGQRVTISCTGSSSNIGYGYVVHWYQQLPGTAPKLLIYRNNQRQSGVPDRFSGSKSGTSASLAISGLRSEDEADYYCAAWDDSLNGWLFGGGTKLTVLG
notes: as for B1

Each binder was assayed against T1, extracellular domain of human PRLR (monomeric, soluble) (human, UniProt P16471 25-234) (assay: ELISA: plate coated with human PRLR extracellular domain, Fab-containing E. coli supernatant, anti-flag-HRP, Amplex Red).
T1 construct: also called ECD-PRLR; ECD of PRLR
T1 sequence: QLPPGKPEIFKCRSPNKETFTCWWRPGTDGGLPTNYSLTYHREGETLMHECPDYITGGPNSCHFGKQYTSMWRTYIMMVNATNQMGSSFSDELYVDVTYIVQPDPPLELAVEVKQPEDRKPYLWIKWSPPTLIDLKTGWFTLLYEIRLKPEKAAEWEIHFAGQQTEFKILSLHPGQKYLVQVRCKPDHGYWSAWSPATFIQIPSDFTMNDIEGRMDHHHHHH
Procedure: 96 well microtiter plates were coated with 1 μg per milliliter of human PRLR. Plates were incubated over night at 4° C. After blocking with PBS buffer containing 3% bovine serum albumin, normalized E. coli-derived supernatants containing the Fab variants were added. Detection of formed complexes occurred via the addition of an anti-flag antibody (Sigma, A8592) labeled with horseradish peroxidase.
B1: binds. B2: binds. B3: binds. B4: binds. B5: binds. B6: binds. B7: binds. B8: binds. B9: binds. B10: binds. B11: binds. B12: binds. B13: binds. B14: binds. B15: binds. B16: binds. B17: binds. B18: binds. B19: binds. B20: binds.
